Tests used:
[1] = target: superfolder GFP [GFP: P42212]; assay: MST; sfGFP as the fluorescent antigen, photobody added in a dilution series; before and after photodeprotection (365 nm)
[2] = target: superfolder GFP [GFP: P42212]; assay: not stated; photobody 10, caged or photodeprotected, with purified sfGFP

| Substance | Kd [1] | Kd [2] |
| --- | --- | --- |
| anti-GFP NPY-photobody (construct 5), GFP-enhancer nanobody with Y37NPY, caged (VHH) | 460 nM |  |
| anti-GFP ONBY-photobody (construct 4), GFP-enhancer nanobody with Y37ONBY, caged (VHH) | > 10000 nM |  |
| anti-GFP minimizer Y113ONBY-photobody (construct 10), caged (VHH) |  | 2280 nM |
